US20250114467A1 (SHANGHAI FUDAN ZHANGJIANG BIO PHARMACEUTICAL, published 2025)
Where a chain is given by its changes, count along the chain named.

T1: human DLL1 (purchased from Acro, DL1-H52H8) (human, UniProt O00548 18-540)
T1 construct: Bought; also called hDLL1
T1 sequence (looked up): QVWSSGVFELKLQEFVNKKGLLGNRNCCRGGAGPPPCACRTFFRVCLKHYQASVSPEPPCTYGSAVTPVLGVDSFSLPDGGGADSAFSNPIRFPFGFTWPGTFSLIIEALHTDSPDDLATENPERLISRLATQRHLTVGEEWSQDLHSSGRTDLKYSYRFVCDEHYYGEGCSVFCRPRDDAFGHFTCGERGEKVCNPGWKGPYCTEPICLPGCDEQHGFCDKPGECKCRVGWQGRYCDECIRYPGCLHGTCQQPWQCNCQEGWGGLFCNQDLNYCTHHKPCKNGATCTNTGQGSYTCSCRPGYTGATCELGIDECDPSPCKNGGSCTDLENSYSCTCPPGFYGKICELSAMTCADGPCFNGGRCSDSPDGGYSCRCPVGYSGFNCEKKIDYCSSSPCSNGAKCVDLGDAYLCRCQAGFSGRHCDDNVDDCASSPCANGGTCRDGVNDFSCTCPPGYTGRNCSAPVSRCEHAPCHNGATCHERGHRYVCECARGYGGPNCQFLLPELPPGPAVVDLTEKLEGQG

T2: human DLL3, His tag (acrobiosystems, DL3-H52H4) (human, UniProt Q9NYJ7 27-492)
T2 construct: Bought; also called human DLL3 protein; free DLL3; not shown: His tag
T2 sequence (looked up): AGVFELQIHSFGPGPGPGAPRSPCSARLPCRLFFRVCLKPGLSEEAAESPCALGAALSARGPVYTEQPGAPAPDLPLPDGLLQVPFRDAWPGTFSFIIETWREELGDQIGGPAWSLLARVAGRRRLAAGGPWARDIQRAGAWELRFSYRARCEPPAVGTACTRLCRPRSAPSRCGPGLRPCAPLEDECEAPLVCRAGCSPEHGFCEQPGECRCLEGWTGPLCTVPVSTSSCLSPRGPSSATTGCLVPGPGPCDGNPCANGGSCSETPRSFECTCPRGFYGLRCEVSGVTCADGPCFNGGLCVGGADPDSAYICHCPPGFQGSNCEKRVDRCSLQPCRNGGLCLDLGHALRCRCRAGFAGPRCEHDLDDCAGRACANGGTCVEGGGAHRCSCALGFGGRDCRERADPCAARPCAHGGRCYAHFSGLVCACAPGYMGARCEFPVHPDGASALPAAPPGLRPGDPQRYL

B1: ch15G2 (antibody, human IgG1, kappa, V domains shown)
VH: EVQLQQSGPELEKPGASVRISCKASGYSFTDYNMHWVKQSNGKSLEWIGNIDPYYGGTNYNQKFEGKATLTVDKSSSTAYMQLKSLTSEDSAVYYCARGGNNYGDYWGQGTTLTVSS
VL: DIQMTQSPASLAASVGETVTITCRASENIYYSLAWYQQKQGKSPQLLIFNANSLEDGVPSRFSGSGSGTQYSMKINSMQPEDTATYFCKQAYDVPWTFGGGTKLEIKR
notes: Chimeric: murine variable regions on human IgG1 heavy and kappa light constant regions; also called chimeric antibody 15G2
B2: ch23G2 (antibody, human IgG1, kappa, V domains shown)
VH: QVQLQQSGPELVRPGVSVKISCKGSGYTFTDYAIHWVKQSRAKSPEWIGIVSTDSGKTSFNQKFKGKATMTVDKSSTTAYMELVRLTSEDSAIYYCARNPYYDYDGYAMDYWGQGTSVTVSS
VL: DIQMTQSSSYLSVSLGGRVTIICKASDHINNWLAWYQQKPGNAPRLIISGATSLETGVPSRFSGSGSGKDYTLSITSLQTEDVATYYCQQYWSIPYTFGGGTKLEIKR
notes: Chimeric: murine variable regions on human IgG1 heavy and kappa light constant regions; also called chimeric antibody 23G2
B3: ch33F11 (antibody, human IgG1, kappa, V domains shown)
VH: EVQLQQSGPELVKPGASVKISCKTSGYTFTENTMHWVKQSHGESLEWIGGINPRNGVTSYNQKFKGKATLTVDKSSSTAYMELRSLTSEDSAVYYCTNTYYRDYFDYWGQGTTLTVSS
VL: NIVMTQSPKSMSMSVGERVTLSCKASENVGTYVSWYQQKPDQSPKLLIYGASNRYTGVPDRFTGSGSPTDFTLTISRMQAEDLAHYYCGQTYTYPLTFGAGTKLELKR
notes: Chimeric: murine variable regions on human IgG1 heavy and kappa light constant regions; also called chimeric antibody 33F11
B4: ch1A5 (antibody, human IgG1, kappa, V domains shown)
VH: B3 VH with N32S, T33A, E43K, R54N, V57G, T58I, N61S, T97G, N98S, T99S
VL: B3 VL with K9E, P68A, D70H, R77S, M78V, H85D, Y87H, T91S, T93S
notes: Chimeric: murine variable regions on human IgG1 heavy and kappa light constant regions, expressed in 293F cells; also called chimeric antibody 1A5
B5: ch19C7 (antibody, human IgG1, kappa, V domains shown)
VH: EVQLQQSGPELVRPGASVRMSCKASGYTFTYYVMHWVKQKPGLGLEWIGYINPYNDGTEYNEKFKGKATLTSDKSSSTAFMELSSLTSEDSAVYYCARWLLREYAMDYWGQGTSVTVSS
VL: DIQMTQSPASLSASVGETVTITCRASDNIHNYLAWYQQKQGKSPQLLVYNAKTLADGVPSRFSGSGSGTQYSLKINSLQPEDFGSYYCQHFWSTPWTFGGGTKLEIKR
notes: Chimeric: murine variable regions on human IgG1 heavy and kappa light constant regions; also called chimeric antibody 19C7
B6: ch26D9 (antibody, human IgG1, kappa, V domains shown)
VH: EVQLQQSGPELVKPGASVKMSCKASGYTFTTYVMHWVKQKPGQGLEWIGYINPYNDDTNYNEKFKGKATLTSDKSSSTAYMELSSLTSEDSAVYYCARWGLTGTGDYYAMDYWGQGTSVTVSS
VL: B5 VL with D27G, I29V, K42R, L46V, Q79L, S93T, K103T
notes: Chimeric: murine variable regions on human IgG1 heavy and kappa light constant regions; also called chimeric antibody 26D9
B7: ch6A2 (antibody, human IgG1, kappa, V domains shown)
VH: EVQLQQSGPELVKPGASVKISCKASGYTFTDYNMNWVKQSQGKSLEWIGYIYPYNGGTGYNQKFKTKATLTVDNSSSTAYMEFRSLTSEDSAVYYCARSDPYYTMDYWGQGTSVTVSS
VL: IIVMTQTPKFLLVSAGDRVTISCKASQSVNNDVAWYQQKPGQSPKLLIYFTSNRFTGVPDRFTGSGYGTDFTFTISSVQAEDLAVYFCQQDHNSPYTFGGGTKLEIKR
notes: Chimeric: murine variable regions on human IgG1 heavy and kappa light constant regions; also called chimeric antibody 6A2
B8: ch10B1 (antibody, human IgG1, kappa, V domains shown)
VH: DVKLVESGGGLVKPGGSLKLSCAASGFTFSNYTISWVRQTPEKRLEWVATFSSGGSYTYYSDSVKGRFTISRDNAKNTLYLQMSSLKSEDTAMYYCSRDRRSDGYYHLYAMDYWGQGTSVTVSS
VL: DIQMTQTTSSLSASLGDRVTISCRASQDISHYLNWYQQKPDGTVKLLIYYTSRLHSGVPSRFSGSGSGTAYSLTISNLEQEDIATYFCQQGYTLPLTFGAGTKLELKR
notes: Chimeric: murine variable regions on human IgG1 heavy and kappa light constant regions; also called chimeric antibody 10B1
B9: ch32E8 (antibody, human IgG1, kappa, V domains shown)
VH: QVTLKESGPGILQPSQTLSLTCSFSGFSLSTSGMGVGWIRQPSGKGLEWLALIWWDDVKRYHPALKSRLTISKDTSSSQVFLKIASVDTADTATYYCARIAEVTGQVGLHYAMDYWGQGTSVTVSS
VL: QTVLTQSPAIMSASLGERVTMTCTASSSVNSSSLHWYQQKPGSSPKLWIYTTSNLASGVPARFSGSGSGTSYSLTISSMEAEDAATYYCHQFHRSPFTFGSGTKLEIKR
notes: Chimeric: murine variable regions on human IgG1 heavy and kappa light constant regions; also called chimeric antibody 32E8
B10: ch13C2 (antibody, human IgG1, kappa, V domains shown)
VH: EVKLVESGGGLVKPGGSLKLSCAASGFAFSSYDMSWVRQTPEKRLEWVATISSGGSYTYYPDSVKGRFTISRDNGRNTLYLQMSSLRSEDTALYYCASPLLGLRFAYWGQGTLVTVSA
VL: QAVVTQESALTTSPGETVTLTCRSSTGAVTTINYANWVQEKPDHLFTGLIGGTNNRAPGVPARFSGSLIGDKAALTITGAQTEDEAIYFCALYYSNHWVFGGGTKLTVLR
notes: Chimeric: murine variable regions on human IgG1 heavy and kappa light constant regions; also called chimeric antibody 13C2

What follows are binders tested against T1, human DLL1 (purchased from Acro, …) (assay: ELISA on plate-coated human DLL1 protein (1 µg/ml), HRP goat anti-human secondary, OD 450 nm [left panel]).
Procedure: (§1) The chimeric antibodies obtained in Example 6 were evaluated for their binding abilities to human DLL1 (purchased from Acro, DL1-H52H8) and DLL4 (purchased from Acro, DL4-H5227) proteins using the ELISA method. The ELISA detection method involved diluting DLL1 and DLL4 proteins with PBS to a final concentration of 1 μg/ml and coating them onto 384-well ELISA plates (purchased from Corning, 3700) at 4° C. overnight. The next day, the supernatant in the plate wells was discarded, and the wells were blocked with 80 μl of 3% milk (dissolved in PBS) for 2 hours, followed by washing three times with 80 μl of PBST (0.1% Tween20). […] After washing with 80 μl of PBST (0.1% Tween20) for five times, 25 μl of HRP-labeled goat anti-human secondary antibody (Jackson, 1:10000) was added to each well and incubated at room temperature for 1 hour, discard the supernatant, and the wells were then washed seven times with 80 μl of PBST (0.1% Tween20). After adding 25 μl of TMB chromogen solution for 10 minutes, the reaction was terminated with 2M HCl, and the absorbance value at 450 nm was measured with a Microplate reader (purchased from Biotek, Elx808). […] To assess the cross-reactivity of the antibodies with mouse and monkey DLL3, mouse DLL3-expressing plasmid pCMV3-mDLL3 (purchased from Beijing Yiqiao, MG58052-UT) and monkey DLL3-expressing plasmid pCMV3-rheDLL3 (purchased from Beijing Yiqiao, CG90919-UT) were used to construct overexpressing cell lines. The construction of overexpressing cells was as described in Examples 2-3. The binding abilities of the chimeric antibodies to these cells were determined by flow cytometry to assess the cross-reactivity of the antibodies with different species.

Binder	binding result
B1	no binding (tested: 20 µg/ml)
B2	no binding (tested: 20 µg/ml)
B3	no binding (tested: 20 µg/ml)
B4	no binding (tested: 20 µg/ml)
B5	no binding (tested: 20 µg/ml)
B6	no binding (tested: 20 µg/ml)
B7	no binding (tested: 20 µg/ml)
B8	no binding (tested: 20 µg/ml)
B9	no binding (tested: 20 µg/ml)
B10	no binding (tested: 20 µg/ml)

These binders were tested against T3, human DLL4 (purchased from Acro, DL4-H5227) (human, UniProt Q9NR61 27-524) (assay: ELISA on plate-coated human DLL4 protein (1 µg/ml), HRP goat anti-human secondary, OD 450 nm [right panel]).
T3 construct: Bought; also called hDLL4
Procedure: as §1

T3 sequence (Q9NR61 27-524 limits assumed): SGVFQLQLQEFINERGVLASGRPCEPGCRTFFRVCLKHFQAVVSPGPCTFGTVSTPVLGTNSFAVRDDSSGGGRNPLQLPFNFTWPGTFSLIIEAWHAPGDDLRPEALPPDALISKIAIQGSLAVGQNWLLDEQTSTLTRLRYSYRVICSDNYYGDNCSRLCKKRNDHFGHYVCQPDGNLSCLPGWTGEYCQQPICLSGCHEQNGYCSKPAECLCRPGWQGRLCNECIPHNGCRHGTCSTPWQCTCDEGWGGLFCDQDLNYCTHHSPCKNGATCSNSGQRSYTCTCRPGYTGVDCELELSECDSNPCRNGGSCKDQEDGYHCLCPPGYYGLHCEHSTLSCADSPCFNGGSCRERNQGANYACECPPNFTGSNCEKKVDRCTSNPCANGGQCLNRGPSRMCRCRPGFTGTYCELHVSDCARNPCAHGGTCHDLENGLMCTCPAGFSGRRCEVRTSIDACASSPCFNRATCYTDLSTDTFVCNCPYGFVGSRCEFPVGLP

Binder	binding result
B1	no binding (tested: 20 µg/ml)
B3	no binding (tested: 20 µg/ml)
B4	no binding (tested: 20 µg/ml)
B5	no binding (tested: 20 µg/ml)
B6	no binding (tested: 20 µg/ml)
B7	binds
B9	no binding (tested: 20 µg/ml)
B10	no binding (tested: 20 µg/ml)

Each binder was assayed against T2, human DLL3, His tag (acrobiosystems, …) (assay: BLI (Octet 96e), antibody on sensor, DLL3-His 100-3.13 nM in solution).
Procedure: To assess the affinity of antibodies for human DLL3 protein, this study employed the BLI method to detect the binding kinetics curves of immobilized antibodies with free DLL3. The method was conducted according to the instrument's user manual (supplier: Fortebio, equipment model: Octet 96e). Briefly, AMC sensors were equilibrated for 60 s with Loading Buffer/Sample dilution buffer (1×PBS, pH7.4, with 0.1% BSA and 0.02% Tween-20) to obtain Baseline 1. The antibodies to be detected were diluted with Loading Buffer to a concentration of 10 ug/ml and bound to the equilibrated sensors, after which the sensors were re-equilibrated with Loading Buffer to obtain Baseline 2. The antibody-loaded sensors were then placed in human DLL3, His tag (supplier: acrobiosystems, catalog number: DL3-H52H4) diluted with Sample Dilution Buffer to concentrations ranging from 100 to 3.13 nM for 90 s to obtain the antibody-protein binding curve. Then, the sensors combined with antigen were placed in the Sample Dilution Buffer again and dissociated for 180 s, and the dissociation curve was obtained. The k-on and k-off values of the antibody-protein binding were calculated based on the binding and dissociation curves, and the KD values were calculated, with the results shown in Table 4.

Binder	Kd [nM]	koff [s⁻¹]	kon [M⁻¹ s⁻¹]
B1	0.0702	0.000121	1.72e+06
B2	0.0158	2.79e-05	1.76e+06
B3	0.0521	6.31e-05	1.21e+06
B4	0.0597	7.4e-05	1.24e+06
B5	0.739	0.000962	1.3e+06
B6	0.0381	6.58e-05	1.73e+06
B7	0.466	0.000684	1.47e+06
B8	0.204	0.000279	1.37e+06
B9	0.09	0.000134	1.49e+06
B10	5.37	0.0012	223000
